{"source": "patent US20140057317A1", "about": "(Harvard, published 2014)", "binders": {"B1": {"name": "wild type S. aureus sortase A (enzyme)", "chain": "MQAKPQIPKDKSKVAGYIEIPDADIKEPVYPGPATPEQLNRGVSFAEENESLDDQNISIAGHTFIDRPNYQFTNLKAAKKGSMVYFKVGNETRKYKMTSIRDVKPTDVEVLDEQKGKDKQLTLITCDDYNEKTGVWEKRKIFVATEVKLEHHHHHH"}, "B2": {"name": "D160N/K190E/K196T (clone 4.2) (protein)", "chain": "B1 chain with D102N, K132E, K138T"}, "B3": {"name": "P94R/D160N/D165A/K190E/K196T srtA (protein)", "chain": "B1 chain with P36R, D102N, D107A, K132E, K138T"}, "B4": {"name": "srtA D165A (protein)", "chain": "B1 chain with D107A"}, "B5": {"name": "P94S/D160N/D165A sortase A (protein)", "chain": "B1 chain with P36S, D102N, D107A"}, "B6": {"name": "srtA P94S (protein)", "chain": "B1 chain with P36S"}, "B7": {"name": "srtA D160N (protein)", "chain": "B1 chain with D102N"}, "B8": {"name": "P94S/D165A (clone 4.3) (protein)", "chain": "B1 chain with P36S, D107A"}, "B9": {"name": "P94S/D160N/D165A/K196T sortase A (protein)", "chain": "B1 chain with P36S, D102N, D107A, K138T"}, "B10": {"name": "P94S/D160N/K196T srtA (enzyme)", "chain": "B1 chain with P36S, D102N, K138T"}, "B11": {"name": "srtA K196T (protein)", "chain": "B1 chain with K138T"}, "B12": {"name": "Sortase 4S.4 (protein)", "chain": "QAKPQIPKDKSKVAGYIEIPDADIKELVYPGPATREQLSRGVSFTEENESLDDQNISITGHTSIGRPSYQFTNLRAAKKGSMVYFKVGNETRKYKMTSIRNVKPTAVEVLDEQEGKDEQLTLITCDDYNEETGVWETRKIFVATEVK"}, "B13": {"name": "optimized variant 4S.12.2 (protein)", "chain": "B12 chain with L27P, S68N"}}, "key": {"Abz-LPETGK(Dnp)-CONH2": {"molecular_target": "T1, Abz-LPETGK(Dnp)-CONH2", "T1 chain": "LPETGK"}, "[1]": {"molecular_target": "T2, human CD154 tagged with the LPETG sequence at its C terminus (human, UniProt P29965 1-261)", "T2 sequence": "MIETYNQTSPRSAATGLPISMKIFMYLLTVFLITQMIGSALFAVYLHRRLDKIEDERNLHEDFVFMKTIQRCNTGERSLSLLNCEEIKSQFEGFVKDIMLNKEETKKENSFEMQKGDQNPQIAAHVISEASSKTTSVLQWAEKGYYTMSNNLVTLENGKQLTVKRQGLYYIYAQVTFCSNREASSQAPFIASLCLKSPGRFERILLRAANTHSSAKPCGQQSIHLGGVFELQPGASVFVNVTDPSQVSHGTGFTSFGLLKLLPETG", "assay": "cell-based or functional assay"}, "Gly-Gly-Gly-COOH (GGG)": {"molecular_target": "T3, Gly-Gly-Gly-COOH (GGG)", "T3 chain": "GGG"}, "[2]": {"molecular_target": "LPESG (SEQ ID NO: 38) substrate"}, "[3]": {"molecular_target": "T4, LPETG (SEQ ID NO: 32) substrate", "T4 chain": "LPETG"}}, "note": "Substitutions are numbered along the chain they refer to. Names and notes keep the numbering of the source."}
{"binder": "B1", "values": [{"measurement": "kcat/Km LPETG", "setting": "Abz-LPETGK(Dnp)-CONH2", "result": 200, "unit": "M⁻¹ s⁻¹"}, {"measurement": "fluorescence of live HeLa cells labeled with GGGYK-biotin over background without enzyme, flow cytometry", "setting": "[1]", "result": "≤ 2.8", "unit": "fold"}]}
{"binder": "B2", "values": [{"measurement": "fold enhancement in catalytic efficiency compared to wild type", "setting": "Abz-LPETGK(Dnp)-CONH2", "result": "an approximately 15-fold enhancement in catalytic efficiency at using the LPETG (SEQ ID NO: 32) substrate"}, {"measurement": "fold reduction in Km LPETG compared to wild type", "setting": "Abz-LPETGK(Dnp)-CONH2", "result": "a 5-7-fold reduction in Km LPETG"}, {"measurement": "kcat/Km LPETG", "setting": "Abz-LPETGK(Dnp)-CONH2", "result": "2400 ± 700", "unit": "M⁻¹ s⁻¹"}]}
{"binder": "B3", "values": [{"measurement": "Km LPETG (fit of the one-hour time course, FIG. 16)", "setting": "Abz-LPETGK(Dnp)-CONH2", "result": "Km LPETG=245±5 µM"}, {"measurement": "fold change in KM LPETG compared to the tetramutant", "setting": "Abz-LPETGK(Dnp)-CONH2", "result": "the kcat and KM LPETG were not altered by more than a factor of 1.3-fold"}, {"measurement": "fold higher kcat/KM LPETG compared with wild type srtA", "setting": "Abz-LPETGK(Dnp)-CONH2", "result": "a 120-fold higher kcat/KM LPETG"}, {"measurement": "kcat/Km LPETG", "setting": "Abz-LPETGK(Dnp)-CONH2", "result": "23000 ± 3000", "unit": "M⁻¹ s⁻¹"}, {"measurement": "fold higher Km GGG compared with wild type srtA", "setting": "Gly-Gly-Gly-COOH (GGG)", "result": "a 20-fold higher Km GGG"}, {"measurement": "fold improvement in Km GGG compared to the tetramutant", "setting": "Gly-Gly-Gly-COOH (GGG)", "result": "the Km GGG of this mutant improved by 1.8-fold"}]}
{"binder": "B4", "values": [{"measurement": "kcat/Km LPETG", "setting": "Abz-LPETGK(Dnp)-CONH2", "result": 700, "unit": "M⁻¹ s⁻¹"}]}
{"binder": "B5", "values": [{"measurement": "fold change in KM LPETG compared to the tetramutant", "setting": "Abz-LPETGK(Dnp)-CONH2", "result": "KM LPETG were not altered by more than a factor of 3-fold"}, {"measurement": "kcat/Km LPETG", "setting": "Abz-LPETGK(Dnp)-CONH2", "result": "7500 ± 300", "unit": "M⁻¹ s⁻¹"}, {"measurement": "fold improvement in Km GGG compared to the tetramutant", "setting": "Gly-Gly-Gly-COOH (GGG)", "result": "the Km GGG of this mutant improved by 2.7-fold"}]}
{"binder": "B6", "values": [{"measurement": "kcat/Km LPETG", "setting": "Abz-LPETGK(Dnp)-CONH2", "result": 600, "unit": "M⁻¹ s⁻¹"}]}
{"binder": "B7", "values": [{"measurement": "kcat/Km LPETG", "setting": "Abz-LPETGK(Dnp)-CONH2", "result": 600, "unit": "M⁻¹ s⁻¹"}]}
{"binder": "B8", "values": [{"measurement": "fold enhancement in catalytic efficiency compared to wild type", "setting": "Abz-LPETGK(Dnp)-CONH2", "result": "an approximately 15-fold enhancement in catalytic efficiency at using the LPETG (SEQ ID NO: 32) substrate"}, {"measurement": "fold reduction in Km LPETG compared to wild type", "setting": "Abz-LPETGK(Dnp)-CONH2", "result": "a 5-7-fold reduction in Km LPETG"}, {"measurement": "kcat/Km LPETG", "setting": "Abz-LPETGK(Dnp)-CONH2", "result": "2600 ± 100", "unit": "M⁻¹ s⁻¹"}]}
{"binder": "B9", "values": [{"measurement": "fold decrease in KM LPETG compared to wild type", "setting": "Abz-LPETGK(Dnp)-CONH2", "result": "The 50-fold decrease in KM LPETG of the tetramutant compared to wild type"}, {"measurement": "fold improved LPETG recognition compared to wild type", "setting": "Abz-LPETGK(Dnp)-CONH2", "result": "45-fold improved LPETG (SEQ ID NO: 32) recognition"}, {"measurement": "fold improvement in kcat/Km LPETG compared to wild type", "setting": "Abz-LPETGK(Dnp)-CONH2", "result": "a 140-fold improvement in its ability to convert LPETG (SEQ ID NO: 32) (kcat/Km LPETG)"}, {"measurement": "kcat/Km LPETG", "setting": "Abz-LPETGK(Dnp)-CONH2", "result": "28000 ± 7000", "unit": "M⁻¹ s⁻¹"}, {"measurement": "fold increase in Km GGG compared to wild type", "setting": "Gly-Gly-Gly-COOH (GGG)", "result": "a 30-fold increase in Km GGG for the sortase A tetramutant"}]}
{"binder": "B10", "values": [{"measurement": "fold increase in KM LPETG compared to the tetramutant", "setting": "Abz-LPETGK(Dnp)-CONH2", "result": 3, "unit": "fold"}, {"measurement": "kcat/Km LPETG", "setting": "Abz-LPETGK(Dnp)-CONH2", "result": "8600 ± 1500", "unit": "M⁻¹ s⁻¹"}, {"measurement": "fold improvement in Km GGG compared to the tetramutant", "setting": "Gly-Gly-Gly-COOH (GGG)", "result": "a 2.6-fold improvement in Km GGG"}, {"measurement": "median fluorescence (streptavidin-AlexaFluor594) of live HeLa cells labeled with GGGYK-biotin, flow cytometry", "setting": "[1]", "result": "≥ 30", "unit": "fold"}]}
{"binder": "B11", "values": [{"measurement": "kcat/Km LPETG", "setting": "Abz-LPETGK(Dnp)-CONH2", "result": 400, "unit": "M⁻¹ s⁻¹"}]}
{"binder": "B12", "values": [{"measurement": "activity against LPESG", "setting": "[2]", "result": "activity against LPESG (SEQ ID NO: 38) comparable to the starting type pentamutant"}, {"measurement": "altered substrate specificity, LPESG against LPETG, as determined by Kcat/Km (HPLC-based substrate cleavage assay)", "setting": "[2]", "result": "remarkably altered substrate specificity (>4000-fold, as determined by Kcat/Km)"}, {"measurement": "activity against LPETG", "setting": "[3]", "result": "completely abrogated activity against LPETG (SEQ ID NO: 32)"}]}
{"binder": "B13", "values": [{"measurement": "activity against LPESG", "setting": "[2]", "result": "activity against LPESG (SEQ ID NO: 38) comparable to the starting type pentamutant"}, {"measurement": "activity against LPETG", "setting": "[3]", "result": "completely abrogated activity against LPETG (SEQ ID NO: 32)"}]}
